From US20100273979A1 come the findings set out here.

Experiment [1] addresses mouse serum albumin (mouse), P07724. As to the kind of experiment: SPR (Biacore2000), MSA immobilised on CM-5, analyte injected at 25 nM; qualitative. On the technique in general: Surface plasmon resonance follows binding to a sensor surface in real time, without labels.
Experiment [2] has as its target human serum albumin (human), P02768. As to the kind of experiment: SPR (Biacore2000), HSA immobilised on CM-5, analyte injected at 25 nM; qualitative.
For experiment [3] the target is unchanged. As to the kind of experiment: SPR (Biacore2000), HSA immobilised (450 RU), analyte 4-400 nM.

Chain of mouse serum albumin (mouse), P07724 (P07724 25-608 limits assumed): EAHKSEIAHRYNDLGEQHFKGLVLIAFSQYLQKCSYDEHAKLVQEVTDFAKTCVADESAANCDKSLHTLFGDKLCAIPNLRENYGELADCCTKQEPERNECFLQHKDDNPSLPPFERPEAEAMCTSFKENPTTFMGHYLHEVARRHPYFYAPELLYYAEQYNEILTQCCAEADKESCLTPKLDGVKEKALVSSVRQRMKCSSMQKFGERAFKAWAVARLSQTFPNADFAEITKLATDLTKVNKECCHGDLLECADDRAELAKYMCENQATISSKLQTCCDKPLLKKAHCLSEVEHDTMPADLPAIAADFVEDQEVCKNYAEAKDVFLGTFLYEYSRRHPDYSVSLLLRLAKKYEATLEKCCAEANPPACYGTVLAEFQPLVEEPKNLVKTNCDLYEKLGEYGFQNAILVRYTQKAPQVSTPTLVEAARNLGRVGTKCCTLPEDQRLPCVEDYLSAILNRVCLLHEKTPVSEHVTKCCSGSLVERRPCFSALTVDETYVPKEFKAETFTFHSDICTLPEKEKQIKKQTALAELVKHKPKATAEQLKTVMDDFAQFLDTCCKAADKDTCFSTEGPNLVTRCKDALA

In experiment [1], LAEAKVLANRELDKYGVSDYYKNLINNAKTVEGVKALIDEILAALP (modifications not checked) showed a Kd of 4.9 nM. Moreover, in experiment [2], the Kd was found to be 1.5 nM. In experiment [3], this molecule gave a Kd of 1.2 nM, a koff of 0.00065 s⁻¹ and a kon of 550000 M⁻¹ s⁻¹.

Usually Kd stands for the free concentration of one partner at which half of the binding sites on the other are occupied at equilibrium, for simple one-to-one binding. One may read the koff as a measure of how fast the partners let go of each other. Low readings indicate a long-lived complex, high ones a short-lived complex. In general, kon refers to the rate constant with which the complex forms. The low end stands for slower complex formation, the high end for faster complex formation.
